Target: human ATP synthase complex (human (endogenous in HEK293T))
Experiment: native gel or EMSA

stoichiometry N: 2
Substance: human ATP synthase complex

Source: article doi:10.1101/2022.07.02.498517
